Reference: article PMC7210950, “Btk SH2-kinase interface is critical for allosteric kinase activation and its targeting inhibits B-cell neoplasms” (Nature Communications, 2020)
Square brackets hold non-standard residues; d marks the D form. Ends that are not written are not given here. pY = N[C@@H](Cc1ccc(OP(=O)(O)O)cc1)C(=O)O

Columns and labels:
Assay in all cases: fluorescence polarisation; Btk SH2 WT and mutants at several concentrations with 1 µM FITC-labeled peptide; Tris 40 mM pH 8, 150 mM NaCl, 1 mM DTT; 1:1 binding model
Settings in all cases: both partners purified
[1] = molecular target: T1, Btk SH2 domain R372G (XLA mutation) (human, UniProt Q06187 271-383, R372G)
T1 construct: SH2 domain of human Btk with the XLA patient mutation R372G; Same limits as m1; source: E. coli Bl21(DE3), purified (Ni-NTA, TEV cleavage, SEC); not shown: His6, N-terminal, cleaved; GST, N-terminal, cleaved

[2] = molecular target: T2, Btk SH2 domain K374N (XLA mutation) (human, UniProt Q06187 271-383, K374N)
T2 construct: SH2 domain of human Btk with the XLA patient mutation K374N; Same limits as m1; also called Btk SH2 K374N; source: E. coli Bl21(DE3), purified (Ni-NTA, TEV cleavage, SEC); not shown: His6, N-terminal, cleaved; GST, N-terminal, cleaved

[3] = molecular target: T3, Btk SH2 domain H364D (XLA mutation) (human, UniProt Q06187 271-383, H364D)
T3 construct: SH2 domain of human Btk with the XLA patient mutation H364D; Same limits as m1; source: E. coli Bl21(DE3), purified (Ni-NTA, TEV cleavage, SEC); not shown: His6, N-terminal, cleaved; GST, N-terminal, cleaved

[4] = molecular target: T4, Btk SH2 domain, wild-type (recombinant) (human, UniProt Q06187 271-383)
T4 construct: SH2 domain of human Bruton's tyrosine kinase (Btk); the construct is in PDB 6HTF; Construct limits are not in the text; also called Btk SH2 WT; human Btk SH2 domain; source: E. coli Bl21(DE3), purified (Ni-NTA, TEV cleavage, SEC); not shown: His6, N-terminal, cleaved; GST, N-terminal, cleaved

[5] = molecular target: T5, Btk SH2 domain K296E (XLA mutation) (human, UniProt Q06187 271-383, K296E)
T5 construct: SH2 domain of human Btk with the XLA patient mutation K296E; Same limits as m1; source: E. coli Bl21(DE3), purified (Ni-NTA, TEV cleavage, SEC); not shown: His6, N-terminal, cleaved; GST, N-terminal, cleaved

[6] = molecular target: T6, Btk SH2 domain S371P (XLA mutation) (human, UniProt Q06187 271-383, S371P)
T6 construct: SH2 domain of human Btk with the XLA patient mutation S371P; Same limits as m1; source: E. coli Bl21(DE3), purified (Ni-NTA, TEV cleavage, SEC); not shown: His6, N-terminal, cleaved; GST, N-terminal, cleaved
T6 sequence (Q06187 271-383 S371P): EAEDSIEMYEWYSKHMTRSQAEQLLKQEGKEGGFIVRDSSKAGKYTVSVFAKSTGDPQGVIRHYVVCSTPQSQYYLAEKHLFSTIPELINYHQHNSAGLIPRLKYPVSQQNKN

T4 sequence (Q06187 271-383): as the sequence (Q06187 271-383 S371P) above, with P101S counted along it
T2 sequence (Q06187 271-383 K374N): as the sequence (Q06187 271-383 S371P) above, with P101S, K104N counted along it
T5 sequence (Q06187 271-383 K296E): as the sequence (Q06187 271-383 S371P) above, with K26E, P101S counted along it
T1 sequence (Q06187 271-383 R372G): as the sequence (Q06187 271-383 S371P) above, with P101S, R102G counted along it
T3 sequence (Q06187 271-383 H364D): as the sequence (Q06187 271-383 S371P) above, with H94D, P101S counted along it

- binding result [1]: binds
- binding result [2]: binds
- binding result [3]: binds
- binding result [4]: binds
- binding result [5]: binds
- binding result [6]: binds
B1: FITC-labeled pY-peptide (ADNDpYIIPLPD) (peptide)
peptide: ADND[pY]IIPLPD
modifications: also: FITC label, end not given here
notes: also called fluorescently labeled pY-peptide
